# T1: Human IL-18 (human, UniProt Q14116 37-193)
# T1 sequence: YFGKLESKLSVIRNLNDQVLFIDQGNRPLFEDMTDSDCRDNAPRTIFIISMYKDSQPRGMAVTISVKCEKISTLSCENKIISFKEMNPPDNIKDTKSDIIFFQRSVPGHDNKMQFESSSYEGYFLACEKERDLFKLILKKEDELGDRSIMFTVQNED
# T2: Human IL-23 (human, UniProt Q9NPF7 20-189; P29460 23-328)
# T2 sequence 1: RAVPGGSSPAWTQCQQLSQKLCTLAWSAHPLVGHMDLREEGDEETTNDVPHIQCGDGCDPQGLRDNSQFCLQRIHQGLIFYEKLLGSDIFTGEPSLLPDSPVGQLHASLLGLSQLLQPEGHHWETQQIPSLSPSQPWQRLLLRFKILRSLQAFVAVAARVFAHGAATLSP
# T2 sequence 2: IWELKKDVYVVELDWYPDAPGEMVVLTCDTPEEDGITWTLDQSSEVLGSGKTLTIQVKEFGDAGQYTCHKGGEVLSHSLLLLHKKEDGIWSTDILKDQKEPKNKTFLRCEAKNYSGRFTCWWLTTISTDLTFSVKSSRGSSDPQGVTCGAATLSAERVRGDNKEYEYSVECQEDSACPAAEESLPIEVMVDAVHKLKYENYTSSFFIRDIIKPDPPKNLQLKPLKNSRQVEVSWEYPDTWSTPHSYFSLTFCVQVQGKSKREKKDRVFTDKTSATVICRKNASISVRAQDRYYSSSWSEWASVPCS
# T3: Cynomolgus monkey IL-18 (Rhesus monkey (identical to cynomolgus …, UniProt Q9BGI5 37-193))
# T3 construct: Bought protein; also called Cyno IL-18; Cynomolgus IL-18
# T3 sequence: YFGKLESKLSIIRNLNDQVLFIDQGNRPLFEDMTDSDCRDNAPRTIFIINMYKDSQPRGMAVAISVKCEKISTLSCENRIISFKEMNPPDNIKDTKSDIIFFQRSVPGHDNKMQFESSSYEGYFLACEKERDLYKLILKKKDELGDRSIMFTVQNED
# Key:
# Human IL-18 [1] = target: T1, Human IL-18; assay: cell-based or functional assay
# Human IL-23 [2] = target: T2, Human IL-23; assay: cell-based or functional assay
# Human IL-23 [3] = target: T2, Human IL-23; assay: cell-based or functional assay; remark: listed apart in the source
# Human IL-18 [4] = target: T1, Human IL-18; assay: SPR (Biacore), antibody captured on Protein A/G, cytokine as analyte, 25 C
# Experimental: (§1) A heterodimeric bsAb, alongside anti-IL-18 and anti-IL-23 common light chain control bispecific antibodies, were assessed for binding to human and cyno IL-18 and IL-23, using the Biacore 8K and T200 (Cytiva) surface plasmon resonance (SPR) instruments. All reagents were generated recombinantly in-house with the exception of Rhesus monkey IL-18 which was purchased from R&D systems (Cat #2548-RM-025/CF). Rhesus and cynomolgus monkey amino acid sequences are identical. Therefore, the protein will be referred to as cynomolgus monkey IL-18.
# (§2) Heterodimeric bsAb, anti-IL-18 and anti-IL-23 common light chain bispecific control molecules were assessed for binding to recombinant human and cynomolgus monkey IL-18 and IL-23 using the Biacore 8K and T200 (Cytiva) SPR instruments. The antibodies were captured onto Protein A/G, which was immobilised onto flow cell 2 of 8 channels (Biacore 8K) or flow cells 2, 3 and 4 (Biacore T200) of a CM5 series S sensor chip by primary amine coupling. The IL-18 or IL-23 analytes were passed over the captured antibodies at varying concentrations between 0.04-25 nM. The association phase was for 240 seconds at 30 μl/min, followed by a dissociation step of up to 1200 seconds. A 0 nM (i.e., buffer alone) injection was used to double reference the binding curves. Regeneration of the chip surface between cycles was carried out using 50 mM NaOH. The assay was run at 25° C. in HBS-EP⁺ buffer. Biacore 8K control software version 3.0 was used to run the experiment. Data was analysed using Biacore 8K Insight evaluation software version 3.0. Biacore T200 control software version 1.0 was used to run the experiment. Data was analysed using Biacore T200 evaluation software version 2.0. Affinities and kinetics were determined using the 1:1 kinetic fit inherent to the software where possible. All affinity values generated using both instruments were combined to determine geometric mean values.
# Cynomolgus monkey IL-18 [5] = target: T3, Cynomolgus monkey IL-18; assay: as above
# Experimental: as §1, §2
# Human IL-23 [6] = target: T2, Human IL-23; assay: cell-based or functional assay; remark: listed apart in the source
# Cynomolgus monkey IL-18 [7] = target: T3, Cynomolgus monkey IL-18; assay: cell-based or functional assay
# Human IL-23 [8] = target: T2, Human IL-23; assay: SPR (Biacore 8K/T200), antibody captured on Protein A/G, cytokine as analyte, 25 C, geometric mean of n=3-5
# Experimental: as §1, §2
# Cynomolgus monkey IL-23 = target: T4, Cynomolgus monkey IL-23 (cynomolgus monkey); assay: as above
# T4 construct: also called Cyno IL-23
# Experimental: as §1, §2
binder,measurement,setting,value
"IL-23 control 1 (antibody, V domains shown, Anti-IL-23 (risankizumab) mAb plus Het-mAb Fc mutations of Heterodimeric bsAbs 1-4, silencing (LAGA) and half-life extending (YTE) mutations; also called anti-IL-23 control 1; risankizumab variable domains) VH: QVQLVQSGAEVKKPGSSVKVSCKASGYTFTDQTIHWMRQAPGQGLEWIGYIYPRDDSPKYNENFKGKVTITADKSTSTAYMELSSLRSEDTAVYYCAIPDRSGYAWFIYWGQGTLVTVSS VL: DIQMTQSPSSLSASVGDRVTITCKASRDVAIAVAWYQQKPGKVPKLLIYWASTRHTGVPSRFSGSGSRTDFTLTISSLQPEDVADYFCHQYSSYPFTFGSGTKLEIK","pIC50 (GeoMean), neutralisation of human IL-18-induced IFNγ secretion by KG-1 cells",Human IL-18 [1],< 8.48
same,"IC50 pM (Geomean), neutralisation of human IL-23-induced pSTAT3 in DB cells (MSD)",Human IL-23 [2],16.6 pM
same,"pIC50 (Geomean), neutralisation of human IL-23-induced pSTAT3 in DB cells (MSD)",Human IL-23 [2],10.8
same,"IC50, inhibition of IL-23-induced pSTAT3 in T cells of human whole blood",Human IL-23 [3],163 pM
same,"pIC50, inhibition of IL-23-induced pSTAT3 in T cells of human whole blood",Human IL-23 [3],9.8
same,binding result,Human IL-18 [4],no binding (tested: 0.04-25 nM analyte)
same,binding result,Cynomolgus monkey IL-18 [5],no binding (tested: 0.04-25 nM analyte)
same,"IC50 pM, inhibition of human IL-23-induced mouse IL-17A secretion in mouse splenocytes",Human IL-23 [6],41.7 pM
same,"pIC50 (M), inhibition of human IL-23-induced mouse IL-17A secretion in mouse splenocytes",Human IL-23 [6],10.4
same,"pIC50 (GeoMean), neutralisation of cynomolgus IL-18-induced IFNγ secretion by KG-1 cells",Cynomolgus monkey IL-18 [7],< 8.48
same,Kd,Human IL-23 [8],0.348 nM
same,Kd,Cynomolgus monkey IL-23,0.204 nM

# — US20260226152A1 (GlaxoSmithKline, published 2026)
